From paper PMC3013012 (The Journal of Biological Chemistry, 2010) come the findings set out here.

Where two headings read alike, the source gives them in different places. Square brackets hold non-standard residues; d marks the D form. Ends that are not written are not given here. Lys(Me3) = C[N+](C)(C)CCCC[C@H](N)C(=O)O

The target of test [1] is Cbx1 chromodomain, Cbx1-(20–73) (human, UniProt P83916 20-73). Put plainly: fluorescence polarisation.
The target in test [2] is T1, Cbx4 chromodomain, Cbx4-(8–65) (human, UniProt O00257 8-65).
T1 sequence: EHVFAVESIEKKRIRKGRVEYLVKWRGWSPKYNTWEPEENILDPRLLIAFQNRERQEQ
Put plainly: fluorescence polarisation. For orientation: Polarisation of emitted light reports the rotation of a fluorescent probe.

Test [3] has as its target T2, Cbx7 chromodomain, Cbx7-(8–62) (human, UniProt O95931 8-62).
T2 sequence: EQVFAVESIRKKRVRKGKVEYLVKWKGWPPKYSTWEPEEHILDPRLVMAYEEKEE
Nature of the test: fluorescence polarisation.

Test [4] has as its target T3, Cbx8 chromodomain, Cbx8-(8–61) (human, UniProt Q9HC52 8-61).
T3 sequence: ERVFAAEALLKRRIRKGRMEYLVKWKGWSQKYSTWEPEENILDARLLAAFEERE

Test [5] deals with T2, Cbx7 chromodomain, Cbx7-(8–62).
Test [6] deals with His6-tagged Cbx3 chromodomain (peptide arrays) (human, UniProt Q13185 29-81). Put plainly: peptide or protein array.
Chain of His6-tagged Cbx3 chromodomain (peptide arrays) (Q13185 29-81): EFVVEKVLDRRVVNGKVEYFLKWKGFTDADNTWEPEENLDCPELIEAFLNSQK
For test [7], the target named is T4, Cbx2 chromodomain, Cbx2-(9–66) (human, UniProt Q14781 9-66).
T4 sequence: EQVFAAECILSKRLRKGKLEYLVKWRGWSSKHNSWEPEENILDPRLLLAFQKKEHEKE
Nature of the test: fluorescence polarisation.

Test [8] addresses T3, Cbx8 chromodomain, Cbx8-(8–61). Nature of the test: fluorescence polarisation.
Test [9] concerns the target T5, Cbx6 chromodomain, Cbx6-(8–65) (human, UniProt O95503 8-65).
T5 sequence: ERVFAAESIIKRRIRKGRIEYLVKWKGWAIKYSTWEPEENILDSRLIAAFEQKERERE
Nature of the test: fluorescence polarisation.

Test [10] concerns the target T6, His6-tagged Cbx7 chromodomain (peptide arrays) (human, UniProt O95931 8-62).
T6 sequence: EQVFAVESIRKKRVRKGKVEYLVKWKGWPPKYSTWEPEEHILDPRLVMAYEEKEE
Nature of the test: peptide or protein array.

Test [11] deals with Cbx5 chromodomain, Cbx5-(18–75) (human, UniProt P45973 18-75). Nature of the test: fluorescence polarisation.
Chain of Cbx5 chromodomain, Cbx5-(18–75) (P45973 18-75): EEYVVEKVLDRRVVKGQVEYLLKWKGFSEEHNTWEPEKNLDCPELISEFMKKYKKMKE

Chain of Cbx1 chromodomain, Cbx1-(20–73) (P83916 20-73): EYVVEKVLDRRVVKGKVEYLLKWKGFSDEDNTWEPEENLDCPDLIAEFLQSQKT

In general, Kd refers to the free concentration of one partner at which half of the binding sites on the other are occupied at equilibrium, for simple one-to-one binding. Higher therefore signals lower affinity. For fluorescein-ARTKQAAR[Lys(Me3)]STGGKA [H3K9Me3T6A peptide (ARTKQAARK(me3)STGGKA), fluorescein-labeled], the figures for the dissociation constant (Kd) in [1], in test [2] and in [3] were 45 µM, 80 µM and 140 µM, respectively.

With RQVAV[Lys(Me3)]STR [SETDB1 peptide RQVAVKme3STR], the Kd turned out to be 98 µM in [4] and 43 µM in test [5].

Regarding TKQVAR[Lys(Me3)]STGGKA (also: held on a cellulose membrane through a polyethylglycol linker) [histone H3 residues 3–15, K9me3, T6V array peptide], the binding result in test [6] is “binds”.

Turning to RGFAL[Lys(Me3)]STHG [SETDB1 peptide 1165-RGFALKme3STHG], binding in test [5] was characterised by a dissociation constant (Kd) of 5 µM.

With HGIAI[Lys(Me3)]STN [SETDB1 peptide HGIAIKme3STN], the Kd came out at 37 µM in test [4] and 5 µM in test [5].

Take fluorescein-QLATKTAR[Lys(Me3)]SAPATG [H3K27Me3A24T peptide (QLATKTARK(me3)SAPATG), fluorescein-labeled]: the Kd in test [7] is 330 µM; in [8] it was above 500 µM; in test [9], above 500 µM; in test [2], 250 µM; in [3] it was 210 µM.

As for QLATKAARKSAPATG (trimethyllysine at 27; fluorescein on the N-terminus) [H3K27Me3 peptide (QLATKAARK(me3)SAPATG), fluorescein-labeled], the Kd was 185 µM in test [7]; above 500 µM in test [8]; above 500 µM in [9]; 205 µM in test [2]; 110 µM in test [3].

TKQTAR[Lys(Me3)]STGGKA (also: held on a cellulose membrane through a polyethylglycol linker) [histone H3 residues 3–15 with trimethylated Lys-9, membrane-immobilized array peptide]: the binding result in [10] and in test [6] was “binds” each time.

Consider TKNTAR[Lys(Me3)]STGGKA (also: held on a cellulose membrane through a polyethylglycol linker) [histone H3 residues 3–15, K9me3, Gln-5 to Asn array peptide], for which the binding result in [6] was “binds”.

For the molecule TKHTAR[Lys(Me3)]STGGKA (also: held on a cellulose membrane through a polyethylglycol linker) [histone H3 residues 3–15, K9me3, Gln-5 to His array peptide], the binding result in test [6] is listed as “binds”.

For the molecule TKCTAR[Lys(Me3)]STGGKA (also: held on a cellulose membrane through a polyethylglycol linker) [histone H3 residues 3–15, K9me3, Gln-5 to Cys array peptide], in [6], the binding result is on record as “binds”.

In the case of ATKAAR[Lys(Me3)]SAPATG (also: held on a cellulose membrane through a polyethylglycol linker) [histone H3 residues 21–33 with trimethylated Lys-27, membrane-immobilized array peptide], in test [10], the binding result is reported as “binds”.

For the molecule ARTKQTARKSTGGKA (trimethyllysine at 9; fluorescein on the N-terminus) [H3K9Me3 peptide (ARTKQTARK(me3)STGGKA), fluorescein-labeled], the Kd in test [1] was determined as 5 µM; in test [11] it was 30 µM; in [2], 70 µM.
